Measured values reported in article PMC9775377, “The High-Resolution Structure Reveals Remarkable Similarity in PD-1 Binding of Cemiplimab and Dostarlimab, the FDA-Approved Antibodies for Cancer Immunotherapy” (Biomedicines, 2022).

Target: T1, extracellular domain of human PD-1 (aa 26-150) (human, UniProt Q15116)
T1 construct: Programmed cell death-1 (PD-1), human, extracellular domain, aa 26-150; any point mutation of the construct would be told there or in PDB 8GY5; also called Programmed cell death-1; ectodomain of PD-1
T1 sequence (Q15116 26-150): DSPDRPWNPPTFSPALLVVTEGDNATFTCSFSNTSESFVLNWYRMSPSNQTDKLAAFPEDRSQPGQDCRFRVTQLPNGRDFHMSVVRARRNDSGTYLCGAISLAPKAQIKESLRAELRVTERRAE
Test: crystal structure; Fab mixed with PD-1 at a molar ratio of 1:1.2, complex purified by gel filtration (20 mM Tris pH 7.5, 200 mM NaCl); hanging-drop vapor diffusion, 0.1 M sodium HEPES pH 7.5, 5% PEG 3350, 20 °C; 1.98 Å, two copies of the complex in the asymmetric unit
Conditions: both partners purified

- binding result: binds
B1: cemiplimab Fab (Fab, V domains shown)
VH: EVQLLESGGVLVQPGGSLRLSCAASGFTFSNFGMTWVRQAPGKGLEWVSGISGGGRDTYFADSVKGRFTISRDNSKNTLYLQMNSLKGEDTAVYYCVKWGNIYFDYWGQGTLVTVSS
VL: DIQMTQSPSSLSASVGDSITITCRASLSINTFLNWYQQKPGKAPNLLIYAASSLHGGVPSRFSGSGSGTDFTLTIRTLQPEDFATYYCQQSSNTPFTFGPGTVVDFR
notes: heavy chain of the cemiplimab Fab; in PDB 8GY5 (deposited here); light chain (kappa) of the cemiplimab Fab; Cemiplimab is a fully human IgG4 (S228P) kappa antibody; also called Fab fragment of cemiplimab; LIBTAYO
